Laboratory results: patent US20040175796A1 (SOLVAY PHARMACEUTICALS B V, published 2004)
No end group written: not given here.

Columns and labels:
[1] = biological target: T1, IGS4B (IGS4BPROT), human G-protein coupled receptor IGS4, polymorphic form B (human, UniProt Q9GZQ4 4-415); experiment: cell-based or functional assay
T1 chain: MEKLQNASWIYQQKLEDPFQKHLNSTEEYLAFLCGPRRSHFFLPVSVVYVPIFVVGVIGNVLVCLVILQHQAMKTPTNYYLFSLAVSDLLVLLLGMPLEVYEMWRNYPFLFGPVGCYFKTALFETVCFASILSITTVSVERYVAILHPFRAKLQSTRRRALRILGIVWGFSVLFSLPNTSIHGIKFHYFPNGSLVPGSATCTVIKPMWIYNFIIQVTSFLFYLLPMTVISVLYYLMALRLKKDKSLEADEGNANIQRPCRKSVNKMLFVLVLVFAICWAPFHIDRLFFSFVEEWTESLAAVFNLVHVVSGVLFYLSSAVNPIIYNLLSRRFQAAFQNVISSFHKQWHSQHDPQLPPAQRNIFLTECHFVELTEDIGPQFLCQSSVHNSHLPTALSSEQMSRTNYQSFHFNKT

[2] = biological target: IGS4A (IGS4APROT), human G-protein coupled receptor IGS4, polymorphic form A (human, UniProt Q9GZQ4 4-415); experiment: cell-based or functional assay

B1: rat Neuromedin U-23 (peptide, UniProt P12760 144-166, looked up)
peptide: YKVNEYQGPVAPSGGFFLFRPRN-NH2
Question: For B1, which “EC50, calcium mobilisation (FLIPR)” value [1] is on record?
Answer: 0.05 nM

Question: What about the “LogEC50, calcium mobilisation (FLIPR)” value [1] of the same binder?
Answer: -10.6 log M

Question: What about the “EC50, calcium mobilisation (FLIPR)” value [2] of the same binder?
Answer: 53 nM

Question: What about the “log EC50, calcium mobilisation (FLIPR)” value [2] of the same binder?
Answer: -7.27 log M
